Measured values reported in the supplement of paper PMC6757056.
± gives the standard deviation of the averaged measurements.

B1: library; a variant is named by its letters at N, in order (parent)
chain: GCUGUCACCGGUGCUUGGUACGUUAUAUUCAGCCGGUCUGAUGAGUCUNNNNNNAGACGAAACAGC

Tests used:
[1] = variants of: B1; test: normalized RNA/DNA level without ligand (relative to sTRSVctl = 100) (log10 (% of sTRSVctl)); HEK293T overexpressing SLC46A1; higher = less ribozyme self-cleavage, higher mRNA level; conditions: without (6R,S)-folinic acid; ligand present: no
Outline: (§1)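 HEK293T cells were transfected with library plasmids carrying ribozyme switches linked to an mCherry reporter, or an eGFP reporter in some ligand experiments, at 4 µg per well of a 6-well plate, with any ligand added 1 h beforehand. After 72 h, total RNA was extracted with EDTA, reverse-transcribed, amplified, barcoded and sequenced. RNA level was defined as RNA reads over DNA reads, normalized to a spiked-in non-cleaving sequence or to the top-ranked sequences. That value was multiplied by 100 and converted to log10, the top set was 25 sequences, and only sequences with ≥100 DNA reads were retained.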

[2] = variants of: B1; test: normalized RNA/DNA level with ligand (relative to sTRSVctl = 100) (log10 (% of sTRSVctl)); HEK293T overexpressing SLC46A1; ligand concentration (+) RNA-Seq: 6 mM; higher = less ribozyme self-cleavage, higher mRNA level; conditions: with (6R,S)-folinic acid; ligand present: yes
Outline: as §1

Variant | normalized RNA/DNA level without ligand (log10) [1] | normalized RNA/DNA level with ligand (log10) [2]
GCUGUCACCGGUGCUUGGUACGUUAUAUUCAGCCGGUCUGAUGAGUCUUAAGGCAGACGAAACAGC [UAAGGC] | 1.98 ± 0.023 | 2.01 ± 0.043
GCUGUCACCGGUGCUUGGUACGUUAUAUUCAGCCGGUCUGAUGAGUCUUAAGGUAGACGAAACAGC [UAAGGU] | 1.844 ± 0.0031 | 1.967 ± 0.018
GCUGUCACCGGUGCUUGGUACGUUAUAUUCAGCCGGUCUGAUGAGUCUCAAGGUAGACGAAACAGC [CAAGGU] | 1.976 ± 0.0082 | 1.97 ± 0.024
GCUGUCACCGGUGCUUGGUACGUUAUAUUCAGCCGGUCUGAUGAGUCUCAAGGCAGACGAAACAGC [CAAGGC] | 1.993 ± 0.019 | 1.99 ± 0.035
GCUGUCACCGGUGCUUGGUACGUUAUAUUCAGCCGGUCUGAUGAGUCUAAAGGUAGACGAAACAGC [AAAGGU] | 1.939 ± 0.0029 | 2.01 ± 0.032
GCUGUCACCGGUGCUUGGUACGUUAUAUUCAGCCGGUCUGAUGAGUCUGAAGUCAGACGAAACAGC [GAAGUC] | 2.05 ± 0.021 | 2.04 ± 0.026
GCUGUCACCGGUGCUUGGUACGUUAUAUUCAGCCGGUCUGAUGAGUCUAAAUCAAGACGAAACAGC [AAAUCA] | 1.996 ± 0.0046 | 2.02 ± 0.047
GCUGUCACCGGUGCUUGGUACGUUAUAUUCAGCCGGUCUGAUGAGUCUAAAUCUAGACGAAACAGC [AAAUCU] | 2.0432 ± 0.0014 | 2.03 ± 0.048
GCUGUCACCGGUGCUUGGUACGUUAUAUUCAGCCGGUCUGAUGAGUCUCAAGCGAGACGAAACAGC [CAAGCG] | 2.057 ± 0.015 | 2.062 ± 0.0093
GCUGUCACCGGUGCUUGGUACGUUAUAUUCAGCCGGUCUGAUGAGUCUAAAGUUAGACGAAACAGC [AAAGUU] | 1.972 ± 0.0027 | 2.01 ± 0.016
GCUGUCACCGGUGCUUGGUACGUUAUAUUCAGCCGGUCUGAUGAGUCUAAAGUAAGACGAAACAGC [AAAGUA] | 1.937 ± 0.014 | 2 ± 0.037
GCUGUCACCGGUGCUUGGUACGUUAUAUUCAGCCGGUCUGAUGAGUCUAAAGCCAGACGAAACAGC [AAAGCC] | 2.03 ± 0.013 | 2.05 ± 0.028
GCUGUCACCGGUGCUUGGUACGUUAUAUUCAGCCGGUCUGAUGAGUCUAAAGCUAGACGAAACAGC [AAAGCU] | 2.003 ± 0.018 | 2.013 ± 0.013
GCUGUCACCGGUGCUUGGUACGUUAUAUUCAGCCGGUCUGAUGAGUCUGAAGGUAGACGAAACAGC [GAAGGU] | 1.974 ± 0.0097 | 2.02 ± 0.043
GCUGUCACCGGUGCUUGGUACGUUAUAUUCAGCCGGUCUGAUGAGUCUGAAGGGAGACGAAACAGC [GAAGGG] | 1.87 ± 0.00046 | 2.03 ± 0.043
GCUGUCACCGGUGCUUGGUACGUUAUAUUCAGCCGGUCUGAUGAGUCUGAAGGAAGACGAAACAGC [GAAGGA] | 1.952 ± 0.0097 | 2.009 ± 0.014
GCUGUCACCGGUGCUUGGUACGUUAUAUUCAGCCGGUCUGAUGAGUCUUAAUCUAGACGAAACAGC [UAAUCU] | 2.021 ± 0.012 | 2.046 ± 0.0022
GCUGUCACCGGUGCUUGGUACGUUAUAUUCAGCCGGUCUGAUGAGUCUUAAUCCAGACGAAACAGC [UAAUCC] | 2.001 ± 0.0044 | 2.03 ± 0.03
GCUGUCACCGGUGCUUGGUACGUUAUAUUCAGCCGGUCUGAUGAGUCUUAAUCGAGACGAAACAGC [UAAUCG] | 1.795 ± 0.012 | 1.988 ± 0.016
GCUGUCACCGGUGCUUGGUACGUUAUAUUCAGCCGGUCUGAUGAGUCUUAAUCAAGACGAAACAGC [UAAUCA] | 1.945 ± 0.013 | 1.97 ± 0.04
GCUGUCACCGGUGCUUGGUACGUUAUAUUCAGCCGGUCUGAUGAGUCUCAAUCAAGACGAAACAGC [CAAUCA] | 2.001 ± 0.0045 | 2.02 ± 0.033

Variant | normalized RNA/DNA level without ligand (log10) [1] | normalized RNA/DNA level with ligand (log10) [2]
GCUGUCACCGGUGCUUGGUACGUUAUAUUCAGCCGGUCUGAUGAGUCUCAAUCCAGACGAAACAGC [CAAUCC] | 2.023 ± 0.0031 | 2.02 ± 0.049
GCUGUCACCGGUGCUUGGUACGUUAUAUUCAGCCGGUCUGAUGAGUCUCAAUCUAGACGAAACAGC [CAAUCU] | 2.045 ± 0.0088 | 2.05 ± 0.028
GCUGUCACCGGUGCUUGGUACGUUAUAUUCAGCCGGUCUGAUGAGUCUCAAUCGAGACGAAACAGC [CAAUCG] | 2.024 ± 0.012 | 2.02 ± 0.0061
GCUGUCACCGGUGCUUGGUACGUUAUAUUCAGCCGGUCUGAUGAGUCUCAAUAUAGACGAAACAGC [CAAUAU] | 1.95 ± 0.025 | 2 ± 0.033
GCUGUCACCGGUGCUUGGUACGUUAUAUUCAGCCGGUCUGAUGAGUCUCAAUACAGACGAAACAGC [CAAUAC] | 1.984 ± 0.017 | 1.97 ± 0.038
GCUGUCACCGGUGCUUGGUACGUUAUAUUCAGCCGGUCUGAUGAGUCUGAAUGCAGACGAAACAGC [GAAUGC] | 1.943 ± 0.012 | 2 ± 0.036
GCUGUCACCGGUGCUUGGUACGUUAUAUUCAGCCGGUCUGAUGAGUCUGAAUGUAGACGAAACAGC [GAAUGU] | 1.988 ± 0.015 | 2.01 ± 0.035
GCUGUCACCGGUGCUUGGUACGUUAUAUUCAGCCGGUCUGAUGAGUCUGAAUAUAGACGAAACAGC [GAAUAU] | 2.038 ± 0.015 | 2.02 ± 0.051
GCUGUCACCGGUGCUUGGUACGUUAUAUUCAGCCGGUCUGAUGAGUCUGAAUAGAGACGAAACAGC [GAAUAG] | 1.9357 ± 0.0015 | 2.01 ± 0.042
GCUGUCACCGGUGCUUGGUACGUUAUAUUCAGCCGGUCUGAUGAGUCUCAAUGUAGACGAAACAGC [CAAUGU] | 1.981 ± 0.0089 | 1.98 ± 0.044
GCUGUCACCGGUGCUUGGUACGUUAUAUUCAGCCGGUCUGAUGAGUCUCAAUGGAGACGAAACAGC [CAAUGG] | 1.94 ± 0.0094 | 1.983 ± 0.0083
GCUGUCACCGGUGCUUGGUACGUUAUAUUCAGCCGGUCUGAUGAGUCUCAAUGCAGACGAAACAGC [CAAUGC] | 2.03 ± 0.027 | 2.023 ± 0.02
GCUGUCACCGGUGCUUGGUACGUUAUAUUCAGCCGGUCUGAUGAGUCUGAAUCCAGACGAAACAGC [GAAUCC] | 2.023 ± 0.0051 | 2.02 ± 0.061
GCUGUCACCGGUGCUUGGUACGUUAUAUUCAGCCGGUCUGAUGAGUCUGAAUCUAGACGAAACAGC [GAAUCU] | 2.011 ± 0.0071 | 2.04 ± 0.037
GCUGUCACCGGUGCUUGGUACGUUAUAUUCAGCCGGUCUGAUGAGUCUCAAGUCAGACGAAACAGC [CAAGUC] | 2.04 ± 0.021 | 2.02 ± 0.037
GCUGUCACCGGUGCUUGGUACGUUAUAUUCAGCCGGUCUGAUGAGUCUCAAGUAAGACGAAACAGC [CAAGUA] | 1.9916 ± 0.0019 | 2.03 ± 0.045
GCUGUCACCGGUGCUUGGUACGUUAUAUUCAGCCGGUCUGAUGAGUCUCAAGUGAGACGAAACAGC [CAAGUG] | 2 ± 0.028 | 1.98 ± 0.046
GCUGUCACCGGUGCUUGGUACGUUAUAUUCAGCCGGUCUGAUGAGUCUUAAUACAGACGAAACAGC [UAAUAC] | 1.941 ± 0.0049 | 1.96 ± 0.021
GCUGUCACCGGUGCUUGGUACGUUAUAUUCAGCCGGUCUGAUGAGUCUUAAUAAAGACGAAACAGC [UAAUAA] | 1.931 ± 0.0048 | 1.985 ± 0.013
GCUGUCACCGGUGCUUGGUACGUUAUAUUCAGCCGGUCUGAUGAGUCUUAAGUAAGACGAAACAGC [UAAGUA] | 1.896 ± 0.0077 | 1.98 ± 0.034
